Experimental data from IntAct's records for PubMed 22878415.

B1: SUMO-specific isopeptidase USPL1 (Homo sapiens), Q5W0Q7 (parent)
chain: MMDSPKIGNGLPVIGPGTDIGISSLHMVGYLGKNFDSAKVPSDEYCPACREKGKLKALKTYRISFQESIFLCEDLQCIYPLGSKSLNNLISPDLEECHTPHKPQKRKSLESSYKDSLLLANSKKTRNYIAIDGGKVLNSKHNGEVYDETSSNLPDSSGQQNPIRTADSLERNEILEADTVDMATTKDPATVDVSGTGRPSPQNEGCTSKLEMPLESKCTSFPQALCVQWKNAYALCWLDCILSALVHSEELKNTVTGLCSKEESIFWRLLTKYNQANTLLYTSQLSGVKDGDCKKLTSEIFAEIETCLNEVRDEIFISLQPQLRCTLGDMESPVFAFPLLLKLETHIEKLFLYSFSWDFECSQCGHQYQNRHMKSLVTFTNVIPEWHPLNAAHFGPCNNCNSKSQIRKMVLEKVSPIFMLHFVEGLPQNDLQHYAFHFEGCLYQITSVIQYRANNHFITWILDADGSWLECDDLKGPCSERHKKFEVPASEIHIVIWERKISQVTDKEAACLPLKKTNDQHALSNEKPVSLTSCSVGDAASAETASVTHPKDISVAPRTLSQDTAVTHGDHLLSGPKGLVDNILPLTLEETIQKTASVSQLNSEAFLLENKPVAENTGILKTNTLLSQESLMASSVSAPCNEKLIQDQFVDISFPSQVVNTNMQSVQLNTEDTVNTKSVNNTDATGLIQGVKSVEIEKDAQLKQFLTPKTEQLKPERVTSQVSNLKKKETTADSQTTTSKSLQNQSLKENQKKPFVGSWVKGLISRGASFMPLCVSAHNRNTITDLQPSVKGVNNFGGFKTKGINQKASHVSKKARKSASKPPPISKPPAGPPSSNGTAAHPHAHAASEVLEKSGSTSCGAQLNHSSYGNGISSANHEDLVEGQIHKLRLKLRKKLKAEKKKLAALMSSPQSRTVRSENLEQVPQDGSPNDCESIEDLLNELPYPIDIASESACTTVPGVSLYSSQTHEEILAELLSPTPVSTELSENGEGDFRYLGMGDSHIPPPVPSEFNDVSQNTHLRQDHNYCSPTKKNPCEVQPDSLTNNACVRTLNLESPMKTDIFDEFFSSSALNALANDTLDLPHFDEYLFENY

Variants of: B1
Details: with sumo3_human SUMO3, P55854
sumo3_human SUMO3, P55854, sequence (P55854 whole entry): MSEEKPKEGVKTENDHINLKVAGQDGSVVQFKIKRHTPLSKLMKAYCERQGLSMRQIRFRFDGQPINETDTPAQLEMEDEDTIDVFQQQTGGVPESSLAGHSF

Variant	effect of a mutation on the interaction
E331A	decreasing interaction

Variants of: B1
Details: with sumo3_human SUMO3, P55854
Remark: another data set of the same source

Variant	effect of a mutation on the interaction
L340A	decreasing interaction
L341A	decreasing interaction

Variants of: B1
Details: with sumo3_human SUMO3, P55854
Remark: another data set of the same source

Variant	effect of a mutation on the interaction
L340A	disrupting interaction
L341A	disrupting interaction

Variants of: B1
Details: with sumo3_human SUMO3, P55854
Remark: another data set of the same source

Variant	effect of a mutation on the interaction
I494A	decreasing interaction
V495A	decreasing interaction

Variants of: B1
Details: with sumo3_human SUMO3, P55854
Remark: another data set of the same source

Variant	effect of a mutation on the interaction
I494V	disrupting interaction
V495A	disrupting interaction

Variants of: B1
Details: with sumo3_human SUMO3, P55854
Remark: another data set of the same source

Variant	effect of a mutation on the interaction
W229L	decreasing interaction

Variants of: B1
Details: with sumo3_human SUMO3, P55854
Remark: another data set of the same source

Variant	effect of a mutation on the interaction
W229L	disrupting interaction

Variants of: B1
Details: with sumo3_human SUMO3, P55854
Remark: another data set of the same source

Variant	effect of a mutation on the interaction
W237F	decreasing interaction

Variants of: B1
Details: with sumo3_human SUMO3, P55854
Remark: another data set of the same source

Variant	effect of a mutation on the interaction
W237F	disrupting interaction

Variants of: B1
Details: with sumo3_human SUMO3, P55854
Remark: another data set of the same source

Variant	effect of a mutation on the interaction
H421A	decreasing interaction
